Assay results: paper PMC4336380, “Promiscuous Binding of Karyopherinβ1 Modulates FG Nucleoporin Barrier Function and Expedites NTF2 Transport Kinetics” (Biophysical Journal, 2015)

Target: T1, wild-type rat NTF2 (nuclear transport factor 2) (rat, UniProt P61972 1-127)
T1 construct: also called wild-type NTF2; source: E. coli BL21(DE3) CodonPlus RIL, purified (NiNTA agarose, gel filtration Superdex S-75)
Assay: SPR; Biacore T100, 25°C, PBS pH 7.2; Nsp1p fragment grafted on gold; multivalent kinetic analysis: discrete distribution of kinetic states (kon,i, koff,i), interaction maps averaged over ~10 sensorgrams
Conditions: both partners purified

T1 sequence (P61972 whole entry): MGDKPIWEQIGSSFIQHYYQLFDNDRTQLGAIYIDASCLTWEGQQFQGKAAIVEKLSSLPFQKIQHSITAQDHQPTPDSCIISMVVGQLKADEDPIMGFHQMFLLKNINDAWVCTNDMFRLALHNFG

binding result: binds
B1: Nsp1p-5FF (yeast Nsp1p FG fragment, residues 262-359; 1x FG, 4x FSFG) (domain or fragment)
chain: not shown
notes: Nsp1p, yeast, FG fragment residues 262-359 (1x FG, 4x FSFG), in a modified pET30a vector; Grafted to the gold SPR sensor through the added N-terminal Cys residues; The vector carries a TEV site in place of the thrombin site; no cleavage is described; source: E. coli BL21(DE3) CodonPlus RIL, purified (NiNTA agarose, Superdex S-75); not shown: Cys-Cys-Trp (after the initiator Met), N-terminal, …
